From PMC4323031 (Malaria Journal, 2015)

Molecular target: T1, mE-ERH, fusion protein comprising the EGF-like domains of MSP1-19, MSP8 and MSP4 (Plasmodium falciparum, 3D7 assumed from …, UniProt Q7KWJ2)
T1 construct: source: Nicotiana benthamiana leaves (agroinfiltration, ER-retained), purified
Assay: SPR
Details: both partners purified

B1: recombinant 2.44IgG1 (chimeric mouse-human IgG1:kappa1 mAb) (antibody, V domains shown)
VH: DVQLQESGPGLVKPSQSLSLTCTVTGYSITSDFAWNWIRQFPGNRLEWMGYMGYTGSTSYNPSLRGRISITRDTSKNQFFLQLNSVTTEDTATYYCARGDYYGSRGYFDVWGAGTTVTVSS
VL: EIVLTQSPALMAASPGEKVTITCSVSSSIRSSNLHWYQQKSDTSPKPWIYGTSNLASGVPVRFSGSGSGTSYSLTISTMEAEDAATYYCQQWSSYPFTFGSGTKLEIK
notes: also called recombinant mAb; recombinant antibody
- Kd: 10.2 nM
- koff: 0.000926 s⁻¹
- kon: 90400 M⁻¹ s⁻¹
